In data set [1] the target is mechanosensitive channel of large conductance (MscL) from Mycobacterium tuberculosis (tag-removed) (Mycobacterium tuberculosis). The experiment in a line: native MS.
The data set “native MS” concerns the molecule itself. Briefly: native MS.

Data on two molecules can be found in PMC4087533 (Nature, 2014).

One may read the stoichiometry N as a count of units in the complex or per binding partner. In turn, “mechanosensitive channel of large conductance (MscL) from Mycobacterium tuberculosis (tag-removed) (natural protein)” returned a stoichiometry N in data set [1] of 5.

B1: ammonia channel AmtB from E. coli (tag-removed) (natural protein)
chain: GASVADKADNAFMMICTALVLFMTIPGIALFYGGLIRGKNVLSMLTQVTVTFALVCILWVVYGYSLAFGEGNNFFGNINWLMLKNIELTAVMGSIYQYIHVAFQGSFACITVGLIVGALAERIRFSAVLIFVVVWLTLSYIPIAHMVWGGGLLASHGALDFAGGTVVHINAAIAGLVGAYLIGKRVGFGKEAFKPHNLPMVFTGTAILYIGWFGFNAGSAGTANEIAALAFVNTVVATAAAILGWIFGEWALRGKPSLLGACSGAIAGLVGVTPACGYIGVGGALIIGVVAGLAGLWGVTMLKRLLRVDDPCDVFGVHGVCGIVGCIMTGIFAASSLGGVGFAEGVTMGHQLLVQLESIAITIVWSGVVAFIGYKLADLTVGLRVPEEQEREGLDVNSHGENAYNA
As to B1, the “stoichiometry N” value in “native MS” came out at 3.
